Source: PMC10153460

Key:
[1] = target: smc1p-T1117I cohesin (S. cerevisiae) (UniProt P32908)
[2] = target: cohesin with Smc1p-D1164E (S. cerevisiae) (UniProt P32908)
[3] = target: cohesin with Smc1p-T1117W (S. cerevisiae) (UniProt P32908)
Sequence of cohesin with Smc1p-T1117W (S. cerevisiae) (P32908 whole entry T1117W, chain 1 of 4): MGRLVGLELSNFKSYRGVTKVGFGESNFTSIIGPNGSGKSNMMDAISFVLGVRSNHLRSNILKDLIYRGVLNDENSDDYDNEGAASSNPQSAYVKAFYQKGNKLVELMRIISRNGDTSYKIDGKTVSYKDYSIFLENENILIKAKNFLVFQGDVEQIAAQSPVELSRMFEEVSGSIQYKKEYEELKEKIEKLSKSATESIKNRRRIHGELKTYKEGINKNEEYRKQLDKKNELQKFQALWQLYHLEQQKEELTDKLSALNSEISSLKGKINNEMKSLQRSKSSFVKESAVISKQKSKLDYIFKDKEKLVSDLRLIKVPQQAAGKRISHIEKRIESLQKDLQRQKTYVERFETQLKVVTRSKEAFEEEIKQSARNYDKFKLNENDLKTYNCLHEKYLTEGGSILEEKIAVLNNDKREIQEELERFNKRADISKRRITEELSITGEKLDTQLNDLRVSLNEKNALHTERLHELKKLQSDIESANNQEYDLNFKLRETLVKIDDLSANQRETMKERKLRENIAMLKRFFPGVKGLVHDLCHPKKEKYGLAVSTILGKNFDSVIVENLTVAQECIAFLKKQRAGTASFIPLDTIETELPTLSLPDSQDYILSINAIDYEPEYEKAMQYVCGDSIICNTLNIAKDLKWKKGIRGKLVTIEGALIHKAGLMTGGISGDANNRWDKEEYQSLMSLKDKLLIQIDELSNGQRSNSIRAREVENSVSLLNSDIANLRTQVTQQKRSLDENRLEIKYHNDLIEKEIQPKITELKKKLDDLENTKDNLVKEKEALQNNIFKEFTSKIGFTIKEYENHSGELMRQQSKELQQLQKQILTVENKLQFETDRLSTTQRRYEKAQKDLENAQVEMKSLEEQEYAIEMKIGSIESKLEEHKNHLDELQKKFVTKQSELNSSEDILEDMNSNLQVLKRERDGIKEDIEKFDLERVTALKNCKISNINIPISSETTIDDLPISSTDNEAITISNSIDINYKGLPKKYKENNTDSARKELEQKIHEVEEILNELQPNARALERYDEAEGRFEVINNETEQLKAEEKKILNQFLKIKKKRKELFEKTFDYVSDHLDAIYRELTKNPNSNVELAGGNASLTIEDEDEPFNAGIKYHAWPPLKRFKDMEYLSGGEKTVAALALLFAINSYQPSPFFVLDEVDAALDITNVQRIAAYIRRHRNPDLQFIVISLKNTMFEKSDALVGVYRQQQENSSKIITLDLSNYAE
Sequence of cohesin with Smc1p-T1117W (S. cerevisiae) (P47037 whole entry, chain 2 of 4, further chain): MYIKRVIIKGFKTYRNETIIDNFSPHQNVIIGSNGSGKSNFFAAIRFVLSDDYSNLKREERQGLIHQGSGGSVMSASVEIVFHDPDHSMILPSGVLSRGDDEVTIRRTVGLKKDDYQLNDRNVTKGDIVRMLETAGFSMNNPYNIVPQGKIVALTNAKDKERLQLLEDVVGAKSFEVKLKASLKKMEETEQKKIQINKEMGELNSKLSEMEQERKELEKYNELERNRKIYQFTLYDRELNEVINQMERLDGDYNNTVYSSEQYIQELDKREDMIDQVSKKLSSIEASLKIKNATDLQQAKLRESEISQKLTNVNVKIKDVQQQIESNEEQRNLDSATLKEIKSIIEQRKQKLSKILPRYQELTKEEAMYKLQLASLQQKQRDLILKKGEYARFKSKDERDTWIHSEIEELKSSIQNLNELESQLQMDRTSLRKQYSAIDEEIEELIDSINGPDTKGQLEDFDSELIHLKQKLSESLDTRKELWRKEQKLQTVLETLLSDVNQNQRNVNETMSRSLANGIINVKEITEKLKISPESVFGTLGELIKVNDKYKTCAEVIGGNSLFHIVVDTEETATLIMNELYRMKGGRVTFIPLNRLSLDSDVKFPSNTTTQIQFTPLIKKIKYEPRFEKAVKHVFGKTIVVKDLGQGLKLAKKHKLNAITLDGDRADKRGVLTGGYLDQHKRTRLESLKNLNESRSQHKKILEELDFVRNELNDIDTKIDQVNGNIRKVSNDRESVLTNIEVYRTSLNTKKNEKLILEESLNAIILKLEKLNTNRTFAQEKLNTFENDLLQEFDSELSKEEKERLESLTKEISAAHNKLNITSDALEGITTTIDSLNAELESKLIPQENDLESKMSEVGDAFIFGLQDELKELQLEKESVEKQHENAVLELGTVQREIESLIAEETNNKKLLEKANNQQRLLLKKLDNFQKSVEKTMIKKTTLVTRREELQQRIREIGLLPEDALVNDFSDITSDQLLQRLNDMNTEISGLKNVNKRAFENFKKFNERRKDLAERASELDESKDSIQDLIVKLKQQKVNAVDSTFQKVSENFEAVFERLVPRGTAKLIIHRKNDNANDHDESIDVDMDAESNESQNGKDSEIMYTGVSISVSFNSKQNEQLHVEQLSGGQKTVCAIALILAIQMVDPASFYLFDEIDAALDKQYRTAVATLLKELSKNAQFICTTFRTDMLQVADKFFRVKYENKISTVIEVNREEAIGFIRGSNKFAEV
Sequence of cohesin with Smc1p-T1117W (S. cerevisiae) (Q12158 whole entry, chain 3 of 4, further chain): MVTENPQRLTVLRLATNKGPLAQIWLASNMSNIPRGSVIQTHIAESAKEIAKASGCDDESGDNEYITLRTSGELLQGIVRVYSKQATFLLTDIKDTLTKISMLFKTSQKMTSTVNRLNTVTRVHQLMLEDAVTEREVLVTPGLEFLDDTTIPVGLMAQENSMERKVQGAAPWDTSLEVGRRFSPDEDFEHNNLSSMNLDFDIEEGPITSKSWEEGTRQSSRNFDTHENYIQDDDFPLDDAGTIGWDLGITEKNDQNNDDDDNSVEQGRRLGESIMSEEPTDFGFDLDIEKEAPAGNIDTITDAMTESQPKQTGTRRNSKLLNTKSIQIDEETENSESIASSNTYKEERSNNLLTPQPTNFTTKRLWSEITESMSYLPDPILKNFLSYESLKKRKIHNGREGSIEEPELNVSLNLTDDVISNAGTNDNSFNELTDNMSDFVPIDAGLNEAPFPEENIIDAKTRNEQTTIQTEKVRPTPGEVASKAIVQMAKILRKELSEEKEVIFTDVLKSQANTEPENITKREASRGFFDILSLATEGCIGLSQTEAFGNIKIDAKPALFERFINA
Sequence of cohesin with Smc1p-T1117W (S. cerevisiae) (P40541 whole entry, chain 4 of 4, further chain): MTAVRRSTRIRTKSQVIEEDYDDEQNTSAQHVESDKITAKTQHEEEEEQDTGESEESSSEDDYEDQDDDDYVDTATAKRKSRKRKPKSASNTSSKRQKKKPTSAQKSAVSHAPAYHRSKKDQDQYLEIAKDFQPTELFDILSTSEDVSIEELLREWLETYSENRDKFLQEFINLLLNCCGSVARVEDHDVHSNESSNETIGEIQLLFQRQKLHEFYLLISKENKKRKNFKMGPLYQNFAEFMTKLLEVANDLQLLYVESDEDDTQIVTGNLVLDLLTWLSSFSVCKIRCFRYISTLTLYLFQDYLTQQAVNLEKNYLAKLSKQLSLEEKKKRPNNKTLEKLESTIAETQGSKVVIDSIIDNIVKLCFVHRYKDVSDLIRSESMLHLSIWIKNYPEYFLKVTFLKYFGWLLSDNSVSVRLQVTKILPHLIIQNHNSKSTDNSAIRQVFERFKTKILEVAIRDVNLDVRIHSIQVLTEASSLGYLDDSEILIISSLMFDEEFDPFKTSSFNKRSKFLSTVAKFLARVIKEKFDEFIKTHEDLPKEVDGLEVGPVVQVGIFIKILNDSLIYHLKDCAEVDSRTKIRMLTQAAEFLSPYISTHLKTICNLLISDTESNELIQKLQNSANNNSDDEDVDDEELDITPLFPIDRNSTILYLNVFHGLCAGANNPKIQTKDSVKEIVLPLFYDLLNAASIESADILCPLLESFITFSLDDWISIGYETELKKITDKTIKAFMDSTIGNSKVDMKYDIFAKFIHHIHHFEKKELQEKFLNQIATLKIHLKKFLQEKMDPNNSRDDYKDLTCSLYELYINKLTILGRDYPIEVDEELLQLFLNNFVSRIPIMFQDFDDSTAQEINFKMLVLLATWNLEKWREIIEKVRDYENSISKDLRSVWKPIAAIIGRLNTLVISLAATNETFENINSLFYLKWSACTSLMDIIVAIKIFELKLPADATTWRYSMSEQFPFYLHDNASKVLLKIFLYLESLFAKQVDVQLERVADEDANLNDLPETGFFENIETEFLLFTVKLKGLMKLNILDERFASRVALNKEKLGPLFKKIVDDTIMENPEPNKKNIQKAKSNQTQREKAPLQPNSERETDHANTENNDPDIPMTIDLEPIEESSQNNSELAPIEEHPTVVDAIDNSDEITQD

Substance: Scc2p/Scc4p (cohesin loader) (from UniProt Q04002 1-1493; P40090 1-624) (complex)
- ATPase activity of purified cohesin in the presence of DNA with Scc2p, against wild-type cohesin with Scc2p; EnzChek phosphate assay (% greater than wild-type cohesin) [1]: 50
- ATPase activity of purified cohesin in the presence of DNA, induction by Scc2p against that of wild-type cohesin; EnzChek phosphate assay (fold less than wild type) [2]: 2
- ATPase activity of purified cohesin in the presence of DNA, induction by Scc2p against that of wild-type cohesin; EnzChek phosphate assay (fold less than wild type) [3]: 2
